From the supplement of paper PMC7877785
± gives the uncertainty stated by the source.

Assay: self-splicing fitness, log relative to wild type (ln ratio); higher = more splicing; Tetrahymena group I intron in knt gene, E. coli kanamycin selection, DiMSum; sequences stand for … in CUCUCU…GGAGGGAAAAGUUAUCAGGCAUGCACCUGGUAGCUAGUCUUUAAACCAAUAGAUUGCAUCGGUUUAAAAGGCAAGACCGUCAAAUUGCGGGAAAGGGGUCAACAGCCGUUCAGUACCAAGUCUCAGGGGAAACUUUGAGAUGGCCUUGCAAAGGGUAUGGUAAUAAGCUGACGGACAUGGUCCUAACCACGCAGCCAAGUCCUAAGUCAACAGAUCUUCUGUUGAUAUGGAUGCAGUUCACAGACUAAAUGUCGGUCGGGGAAGAUGUAUUCUUCUCAUAAGAUAUAGUCGGACCUCUCCUUAAUGGGAGCUAGCGGAUGAAGUGAUGCAACACUGGAGCCGCUGGGAACUAAUUUGUAUGCGAAAGUAUAUUGAUUAGUUUUGGAGUACUCGUGGUCG
Outline: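 DiMSum derived fitness as the error-weighted combination of fold changes across replicates, kanamycin versus no kanamycin, normalised to wild type. E. coli BL21(DE3) held the library, which randomised all eight P1ex-region intron nucleotides within the knt kanamycin-resistance gene on pET-22b(+). Six replicate transformations grew overnight at 37°C or 30°C on LB agar with or without 25 μg/mL kanamycin, also containing 100 μg/mL carbenicillin, 50 μM IPTG and 0.2% rhamnose, and pooled colonies were amplicon-sequenced on an Illumina HiSeq 2500.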

Sequence | self-splicing fitness (ln) (30 °C) | self-splicing fitness (ln) (37 °C)
CCGAAGCAAUAUUACGCCUC | -1.84 ± 0.28 | 
CCGAAGCAAUAUUACGGACG | -0.955 ± 0.11 | 0.515 ± 0.12
CCGAAGCAAUAUUACGGACU | -2.33 ± 0.32 | -2.2 ± 0.34
CCGAAGCAAUAUUACGGGGC | -3.54 ± 0.24 | -1.64 ± 0.24
CCGAAGCAAUAUUACGUAAA | -3.14 ± 0.22 | -2.12 ± 0.33
CCGAAGCAAUAUUACGUCAG | -1.47 ± 0.071 | -0.198 ± 0.11
CCGAAGCAAUAUUACGUCUU | -3.58 ± 0.15 | -2.98 ± 0.21
CCGAAGCAAUAUUACGUGGA | -3.71 ± 0.29 | -2.47 ± 0.17
CCGAAGCAAUAUUACGUGGU | -4.68 ± 0.29 | -2.24 ± 0.2
CCGAAGCAAUAUUACGUGUG | -2.19 ± 0.059 | -0.959 ± 0.062
CCGAAGCAAUAUUACGUUCG | -3.33 ± 0.13 | -1.26 ± 0.11
CCGCAGCAAUAUUACGAAGG | -3.52 ± 0.18 | -2.98 ± 0.29
CCGCAGCAAUAUUACGACAA | -3.68 ± 0.23 | -2.21 ± 0.24
CCGCAGCAAUAUUACGACAC | -2.84 ± 0.28 | -2.71 ± 0.38
CCGCAGCAAUAUUACGACAU | -3.899 ± 0.024 | -2.94 ± 0.039
CCGCAGCAAUAUUACGAGAU | -4.09 ± 0.42 | -2.2 ± 0.19
CCGCAGCAAUAUUACGAUAU | -4.2 ± 0.23 | -2.76 ± 0.17
CCGCAGCAAUAUUACGCAUU | -3.28 ± 0.2 | -3.44 ± 0.19
CCGCAGCAAUAUUACGCCAC | -3.33 ± 0.29 | -1.81 ± 0.28
CCGCAGCAAUAUUACGCCAG | -0.493 ± 0.091 | -0.22 ± 0.14
CCGCAGCAAUAUUACGCCGC | -4.21 ± 0.29 | -2.93 ± 0.48
CCGCAGCAAUAUUACGCCUA | -3.92 ± 0.31 | -3.58 ± 0.3
CCGCAGCAAUAUUACGGAAG | -3.05 ± 0.12 | -1.33 ± 0.11
CCGCAGCAAUAUUACGGGUG | -1.22 ± 0.055 | -0.741 ± 0.069
CCGCAGCAAUAUUACGGUGA | -2.46 ± 0.084 | -0.784 ± 0.075
CCGCAGCAAUAUUACGGUUA | -3.25 ± 0.2 | -2.26 ± 0.2

Sequence | self-splicing fitness (ln) (30 °C) | self-splicing fitness (ln) (37 °C)
CCGCAGCAAUAUUACGUAGC |  | -0.697 ± 0.22
CCGCAGCAAUAUUACGUAGU | -3.89 ± 0.14 | -2.88 ± 0.18
CCGCAGCAAUAUUACGUAUG | -1.31 ± 0.055 | -0.172 ± 0.068
CCGCAGCAAUAUUACGUAUU | -3.84 ± 0.17 | -2.66 ± 0.15
CCGCAGCAAUAUUACGUCAA | -4.05 ± 0.33 | -3.04 ± 0.27
CCGCAGCAAUAUUACGUGAA | -4.45 ± 0.21 | -1.88 ± 0.16
CCGCAGCAAUAUUACGUGAC | -4.7 ± 0.39 | -1.96 ± 0.26
CCGGAGCAAUAUUACGAAUG | -1.1 ± 0.074 | 0.21 ± 0.097
CCGGAGCAAUAUUACGACGU | -0.341 ± 0.08 | -0.163 ± 0.096
CCGGAGCAAUAUUACGAGUU | -3.65 ± 0.2 | -2.76 ± 0.29
CCGGAGCAAUAUUACGAUAG | -0.959 ± 0.07 | -0.152 ± 0.081
CCGGAGCAAUAUUACGAUGC | -2.69 ± 0.41 | 
CCGGAGCAAUAUUACGCACC | -1.27 ± 0.38 | 
CCGGAGCAAUAUUACGCACU |  | -2.69 ± 0.48
CCGGAGCAAUAUUACGCCAA |  | -2.53 ± 0.26
CCGGAGCAAUAUUACGCCAU |  | -2.18 ± 0.35
CCGGAGCAAUAUUACGCGAG | -2.87 ± 0.3 | -1.79 ± 0.27
CCGGAGCAAUAUUACGCGUG | -1.09 ± 0.14 | -0.996 ± 0.16
CCGGAGCAAUAUUACGCUGU | -4.31 ± 0.34 | -2.4 ± 0.4
CCGGAGCAAUAUUACGGCGG | -1.49 ± 0.15 | -2.15 ± 0.34
CCGGAGCAAUAUUACGGGAC | -3.11 ± 0.31 | -2.5 ± 0.3
CCGGAGCAAUAUUACGGGCG | -1.36 ± 0.11 | -1 ± 0.15
CCGGAGCAAUAUUACGGUCC | -1.43 ± 0.23 | 
CCGGAGCAAUAUUACGGUGC |  | -1.63 ± 0.45
CCGGAGCAAUAUUACGUCAA | -4.11 ± 0.32 | -3.39 ± 0.26
CCGGAGCAAUAUUACGUCCA | -1.39 ± 0.21 | -1.66 ± 0.32

Sequence | self-splicing fitness (ln) (30 °C) | self-splicing fitness (ln) (37 °C)
CCGGAGCAAUAUUACGUGCA | -3.1 ± 0.35 | -2.06 ± 0.29
CCGGAGCAAUAUUACGUUCG | -4.36 ± 0.46 | -1.92 ± 0.46
CCGGAGCAAUAUUACGUUGU | -2.59 ± 0.21 | -2.56 ± 0.26
CCGUAGCAAUAUUACGAAAC | -2.61 ± 0.41 | -0.972 ± 0.29
CCGUAGCAAUAUUACGAAAU | -3.61 ± 0.32 | -2.7 ± 0.34
CCGUAGCAAUAUUACGAACA | -2.12 ± 0.2 | -2.26 ± 0.19
CCGUAGCAAUAUUACGAACC |  | -2.06 ± 0.45
CCGUAGCAAUAUUACGACUA |  | -1.08 ± 0.25
CCGUAGCAAUAUUACGCAAG | -2.09 ± 0.18 | -1.46 ± 0.18
CCGUAGCAAUAUUACGCAGC | -3.54 ± 0.35 | -3.36 ± 0.25
CCGUAGCAAUAUUACGCAGG |  | -2.75 ± 0.48
CCGUAGCAAUAUUACGCCCA |  | -2.54 ± 0.48
CCGUAGCAAUAUUACGCUAC | -4.65 ± 0.38 | -1.76 ± 0.21
CCGUAGCAAUAUUACGCUCA |  | -2.36 ± 0.26
CCGUAGCAAUAUUACGGAAC | -3.54 ± 0.41 | -2.13 ± 0.43
CCGUAGCAAUAUUACGGAUA |  | -2.16 ± 0.28
CCGUAGCAAUAUUACGGAUU |  | -3.01 ± 0.29
CCGUAGCAAUAUUACGGCAG | -3.35 ± 0.26 | -2.28 ± 0.26
CCGUAGCAAUAUUACGGGCA | -3.76 ± 0.42 | -2.14 ± 0.23
CCGUAGCAAUAUUACGGGCU | -2.94 ± 0.16 | -2.27 ± 0.21
CCGUAGCAAUAUUACGGUAA | -3.17 ± 0.24 | -3.3 ± 0.26
CCGUAGCAAUAUUACGGUCA | -1.64 ± 0.12 | -2.27 ± 0.19
CCGUAGCAAUAUUACGGUUA | -3.29 ± 0.16 | -1.57 ± 0.12
CCGUAGCAAUAUUACGGUUU | -2.85 ± 0.16 | -3.05 ± 0.27
CCGUAGCAAUAUUACGUACC | -4.4 ± 0.29 | -1.72 ± 0.34
CCGUAGCAAUAUUACGUUAC | -4.02 ± 0.32 | -2.27 ± 0.42

Sequence | self-splicing fitness (ln) (30 °C) | self-splicing fitness (ln) (37 °C)
CCGUAGCAAUAUUACGUUAG | -2.22 ± 0.14 | -0.971 ± 0.14
CCGUAGCAAUAUUACGUUCA | -1.34 ± 0.2 | -1.91 ± 0.25
CCUAAGCAAUAUUACGAAUG | -1.63 ± 0.14 | -2.23 ± 0.16
CCUAAGCAAUAUUACGACUC | -3.42 ± 0.38 | -2.04 ± 0.3
CCUAAGCAAUAUUACGAGUG | -0.812 ± 0.045 | -0.282 ± 0.073
CCUAAGCAAUAUUACGAUAU | -3.87 ± 0.32 | -2.6 ± 0.21
CCUAAGCAAUAUUACGCACC | -3.09 ± 0.27 | -3.03 ± 0.28
CCUAAGCAAUAUUACGCCUG | -3.62 ± 0.3 | -2.27 ± 0.3
CCUAAGCAAUAUUACGCGGC | -1.89 ± 0.33 | -2.13 ± 0.42
CCUAAGCAAUAUUACGCUGC |  | -3.02 ± 0.34
CCUAAGCAAUAUUACGCUUU | -3.09 ± 0.23 | -2.17 ± 0.26
CCUAAGCAAUAUUACGGAAA |  | -2.27 ± 0.27
CCUAAGCAAUAUUACGGAUU | -4.68 ± 0.28 | -2.46 ± 0.23
CCUAAGCAAUAUUACGGCGA | -2.84 ± 0.31 | -1.95 ± 0.27
CCUAAGCAAUAUUACGUACA | -3.4 ± 0.5 | -2.9 ± 0.38
CCUAAGCAAUAUUACGUAUC | -3.83 ± 0.32 | -2.33 ± 0.26
CCUAAGCAAUAUUACGUCGA | -2.67 ± 0.23 | -2.77 ± 0.25
CCUAAGCAAUAUUACGUGCA | -3.34 ± 0.18 | -1.91 ± 0.17
CCUAAGCAAUAUUACGUGUG | -1.83 ± 0.057 | -1.49 ± 0.075
CCUAAGCAAUAUUACGUUAA | -3.22 ± 0.4 | -2.49 ± 0.22
CCUAAGCAAUAUUACGUUAC | -4.69 ± 0.36 | -3.03 ± 0.32
CCUCAGCAAUAUUACGAACG | -0.86 ± 0.062 | -0.285 ± 0.096
CCUCAGCAAUAUUACGACGC | -3.56 ± 0.4 | -2.43 ± 0.45
